The target of experiment [1] is T1, H-2Db MHC class I molecule on RMA-S cells (mouse, UniProt P01887 21-119; P01899 25-362).
T1 construct: MHC class I stabilised on RMA-S (H-2b) cells by added peptide; detected with anti-H-2Db monoclonal antibody clone 28-14-8; also called H-2Db molecules
T1 sequence (MHC heavy, looked up): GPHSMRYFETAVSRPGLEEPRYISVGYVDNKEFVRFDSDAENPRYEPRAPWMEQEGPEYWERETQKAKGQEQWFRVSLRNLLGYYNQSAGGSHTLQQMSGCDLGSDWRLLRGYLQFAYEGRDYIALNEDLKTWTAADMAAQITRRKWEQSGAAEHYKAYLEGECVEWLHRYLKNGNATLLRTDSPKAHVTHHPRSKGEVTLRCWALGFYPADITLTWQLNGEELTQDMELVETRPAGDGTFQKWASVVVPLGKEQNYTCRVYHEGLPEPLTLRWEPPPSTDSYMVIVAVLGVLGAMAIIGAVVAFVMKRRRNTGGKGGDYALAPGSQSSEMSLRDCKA
T1 sequence (b2m, looked up): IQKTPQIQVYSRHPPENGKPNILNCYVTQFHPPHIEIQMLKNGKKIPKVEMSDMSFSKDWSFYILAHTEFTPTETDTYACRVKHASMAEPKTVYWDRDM
The experiment in a line: RMA-S MHC class I stabilisation assay, flow cytometry with anti-H-2Db antibody. The method, then: To test the binding affinity of these peptides to H-2Db, an RMA-S binding experiment was performed, and the FI value in the assay was measured. […] The RMA-Binding assays were performed as previously described (Lyman et al., J. Virol. 76:3125-3134, 2002). Briefly, synthetic peptides were dissolved in dimethyl sulfoxide before dilution. For MHC-binding assays, RMA-S cells were loaded with various peptides for 16 to 18 h at 37° C. Levels of surface class I molecules were assessed by flow cytometric analysis (FACScan; Becton Dickinson) using mouse monoclonal antibodies specific for H-2Db (Southern Biotech, clone No. 28-14-8). FI=Fluorescence after peptides stimulation/ Fluorescence without peptide-1.
(Flow cytometry measures light scatter and fluorescence of single cells or particles in a stream.)

Experiment [2] has as its target T2, HLA-A2 on the surface of T2 cells (human).
T2 construct: Stabilised HLA-A2 detected with pan HLA class I monoclonal antibody W6/32; also called MHC molecules
Kind of experiment: T2 HLA-A2 stabilisation assay, flow cytometry with W6/32. The method, then: To test the binding affinity of the predicted human peptides for HLA-A2, three exemplary peptides, designated KDR505 (SEQ ID NO:6), KDR775 (SEQ ID NO:7) and KDR1093 (SEQ ID NO:5) were synthesized and evaluated in a T2 binding assay as described by Cerundolo et al., Nature 342:449-452, 1990. In brief, T2 cells were cultured in RPMI1640 with 10% FBS, and grown in 5% CO₂ at 37° C. Cells (1×10⁵) in a volume of 100 μl of RPMI 1640 (serum free) were aliquoted into 96-well, U-bottomed plates and incubated with peptide at a final concentration of 0.1-100 μM plus 5 nM β₂ microglobulin (Cymbus Biotechnology Ltd., Chandlers Ford, Hampshire, United Kingdom) for 18 h at 37° C. in 5% CO₂. The level of stabilized HLA-A2 on the surface of the T2 cells was detected using the pan HLA class I monoclonal antibody W6/32 (European Collection of Animal Cell Cultures (ECACC), Porton Down, Salisbury) that recognizes stabilized HLA-A2 complexes. Samples are fixed in 1% paraformaldehyde in PBS prior to analysis and analyzed on a Becton Dickinson FACSCAN®.

B1: Human P53 264-272 peptide (peptide, UniProt P04637 264-272, looked up)
peptide: LLGRNSFEV
notes: range 264-272; also called wild type P53 264-272
As for B1, in experiment [1], the binding result is recorded as “no binding (tested: 200 µM)” and the “peptide concentration at FI=0.5” value is greater than 200 µM.

B2: KDR505 (human VEGFR-2/KDR peptide ALIEGKNKT) (peptide)
peptide: ALIEGKNKT
Regarding B2, the binding result in experiment [2] is given as “binds”.

B3: Human Papilloma Virus (HPV)16E7 49-57 peptide (peptide, UniProt P03129 49-57, looked up)
peptide: RAHYNIVTF
notes: range 49-57; also called HPV E7 49-57
In the case of B3, the “peptide concentration at FI=0.5” value in experiment [1] is roughly 12.5 µM.

B4: KDR3 (murine VEGFR-2/KDR peptide FSNSTNDILI) (peptide)
peptide: FSNSTNDILI
notes: Synthetic peptide (Sigma); also called VEGFR-2/KDR3
Regarding B4, in experiment [1], the “peptide concentration at FI=0.5” value is roughly 3 µM.

B5: KDR2 (murine VEGFR-2/KDR peptide VILTNPISM) (peptide)
peptide: VILTNPISM
notes: Synthetic peptide (Sigma); also called VEGFR-2/KDR2
With B5, the “peptide concentration at FI=0.5” value in experiment [1] is roughly 24 µM.

B6: KDR1093 (human VEGFR-2/KDR peptide VLLWEIFSL) (peptide)
peptide: VLLWEIFSL
On to B6, for which the binding result in experiment [2] is reported as “binds”.

B7: KDR775 (human VEGFR-2/KDR peptide AMFFWLLLV) (peptide)
peptide: AMFFWLLLV
Turning to B7, the binding result in experiment [2] is “binds”.
